In US20250152729A1 (CANCER RESEARCH TECHNOLOGY, published 2025):
Positions count from the first letter of the chain named. Names may count otherwise.

B1: mouse 5E3 expressed as human IgG1 Alya (antibody, V domains shown)
VH: QVQLQQPGAELVMPGASVKMSCKASGYTFTDYWMHWVKQRPGQGLEWIGAIDTSDSYTSYNQKFKGKATLTVDESSSTAYMQLSSLTSEDSAVYYCARDYGNFYYYAMDYWGQGTSVTVSS
VL: QAVVTQESALTTSPGETVTLTCRSSTGAVTTSNYANWVQEKPDHLFTGLIGGTNNRAPGVPARFSGSLIGDKAALTITGAQTEDEAIYFCALWYSNHWVFGGGTKLTVL
notes: Mouse variable domains on human IgG1 Alya constant (pEU1.22; 239iCys and S442C, EU numbering); purified, unconjugated; also called 5E3 IgG1 Alya
B2: 5Hg2-5Lg1 human Alya IgG1 (antibody, V domains shown)
VH: QVQLVQSGAEVKKPGASVKVSCKASGYTFTDYWMHWVRQAPGQRLEWMGAIDTSDSYTSYNQKFKGRVTITRDTSASTAYMELSSLRSEDTAVYYCARDYGNFYYYAMDYWGQGTLVTVSS
VL: QAVVTQEPSLTVSPGGTVTLTCRSSTGAVTTSNYANWFQQKPGQAPRTLIYGTNNRAPWTPARFSGSLLGGKAALTLSGAQPEDEAEYYCALWYSNHWVFGGGTKLTVL
notes: Humanised 5E3; human IgG1 Alya constant (239iCys, S442C, EU), lambda light chain; purified, unconjugated
B3: 5Hg2-5Lg3 human Alya IgG1 (antibody, V domains shown)
VH: B2 VH
VL: QTVVTQEPSFSVSPGGTVTLTCRSSTGAVTTSNYANWYQQTPGQAPRTLIYGTNNRAPGVPDRFSGSILGNKAALTITGAQADDESDYYCALWYSNHWVFGGGTKLTVL
notes: as for B2
B4: 5Hg1-5Lg2 human Alya IgG1 (antibody, V domains shown)
VH: B2 VH with R44G, I70M, A76T, A79V
VL: B2 VL with S78L
notes: as for B2
B5: 5Hg1-5Lg1 human Alya IgG1 (antibody, V domains shown)
VH: B2 VH with R44G, I70M, A76T, A79V
VL: B2 VL
notes: as for B2
B6: 5Hg2-5Lg2 human Alya IgG1 (antibody, V domains shown)
VH: B2 VH
VL: B2 VL with S78L
notes: as for B2
B7: 5Hg4-5Lg5 human Alya IgG1 (antibody, V domains shown)
VH: QVQLVQSGSELKKPGASVKVSCKASGYTFTDYWMHWVRQAPGQGLEWMGAIDTSDSYTSYNQKFKGRFVFSLDTSVSTAYLQICSLKAEDTAVYYCARDYGNFYYYAMDYWGQGTLVTVSS
VL: QSVVTQPPSVSGAPGQRVTISCRSSTGAVTTSNYANWYQQLPGTAPKLLIYGTNNRAPGVPDRFSGSKSGASASLAITGLQAEDEADYYCALWYSNHWVFGGGTKLTVL
notes: as for B2
B8: C0120903 human Alya IgG1 (antibody, V domains shown)
VH: EVQLVQSGAEVKKPGSSMKVSCKASGGTFNSYTINWVRQAPGQGLEWVGGFIPIFGTADYAQKFHGRVAITADESMSTAYMELSSLRSEDTAVYYCARAPLGSEPFDYWGQGTMVTVSS
VL: SYVLTQPPSVSVAPGQTARITCGGNNIGSKSVHWYQQKPGQAPVLVVYDDSDRPSGIPERFSGSNSGNTATLTISRVEAGDEADYYCQVWDSSSDHLVFGGGTKLTVL
notes: Fully human, phage display derived; human IgG1 Alya constant (239iCys, S442C, EU); unconjugated
B9: C0120917 human Alya IgG1 (antibody, V domains shown)
VH: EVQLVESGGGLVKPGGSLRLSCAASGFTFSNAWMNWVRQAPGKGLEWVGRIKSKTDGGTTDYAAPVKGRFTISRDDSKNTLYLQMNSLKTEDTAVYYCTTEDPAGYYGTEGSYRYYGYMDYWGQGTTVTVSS
VL: NFMLTQPHSVSESPGKTVTISCTASGDTLDNKYVNWYQVRPGSAPATLIFHYEERDSGVPDRFSGSFDASSNSASLTISGLQTADEADYFCQSYDSKRDNLVVFGGGTKVTVL
notes: as for B8
B10: C0120918 human Alya IgG1 (antibody, V domains shown)
VH: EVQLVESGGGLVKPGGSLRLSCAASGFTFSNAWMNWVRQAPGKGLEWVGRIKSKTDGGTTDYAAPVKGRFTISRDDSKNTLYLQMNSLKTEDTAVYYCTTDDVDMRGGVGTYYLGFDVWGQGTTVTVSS
VL: SYELTQPPSVSVSPGQTARITCSGDALPKQYAYWYQQKPGQAPVLVIYKDSERPSGIPERFSGSSSGTTVTLTISGVQAEDEADYYCQSADSSGTWVFGGGTKVTVL
notes: as for B8
B11: C0120914 human Alya IgG1 (antibody, V domains shown)
VH: QVQLQESGPGLVKPSETLSLTCTVSGGSVSSGRYDWSWIRQPPGKGLEWIGHIYYTGITDYNPSLRSRVTISADKPKNQFSLKLNSVTAADTAVYYCARGPFFDPWGQGTMVTVSS
VL: QSVLTQPPSVSVAPGQTASLTCGANNIGSKSVQWYQQKPGQAPVLVVYDGSDRPSGIPDRFSGSSSENTATLTISRVEAGDEADYYCQLWDSVTDRPVFGGGTKVTVL
notes: as for B8
B12: C0120906 human Alya IgG1 (antibody, V domains shown)
VH: EVQLVQSGPEVKKPGASVKISCKASGYKLNDPGVHGVSWVRQAPGQGLEWMGWISTLNGDTRYAQKFQGRVTMATDSSTSTIYMDLRSLKSDDTALYYCARDDYTAIFDFWGRGTLVTVSS
VL: QSVLTQPPSVSVAPGQTASITCGGSNIGSQSVHWYQQKPGQAPVLVVYDDSDRPSGIPERFSGSKSGNTASLILSRVEAGDEADYYCQVWDSSTDHHVFGTGTKVTVL
notes: as for B8
B13: C0120905 human Alya IgG1 (antibody, V domains shown)
VH: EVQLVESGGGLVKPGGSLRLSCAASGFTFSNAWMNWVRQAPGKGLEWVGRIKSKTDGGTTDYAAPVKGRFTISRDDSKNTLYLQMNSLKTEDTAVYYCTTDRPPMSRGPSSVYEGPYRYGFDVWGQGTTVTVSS
VL: NFMLTQPHSVSESPGKTVTISCTGSGGNIVDNFVQWHQQRPGSAPRTVIYEDDQRPSGVPDRFSASVDSSSNSGTLSISGLKTEDEADYYCQSYDGANRWVFGGGTKLTVL
notes: as for B8

biological target: T1, human SEMA4A expressed on cells (UniProt ID Q9H3S1, isoform 1) (human, UniProt Q9H3S1 33-761); test: cell-based or functional assay
T1 sequence: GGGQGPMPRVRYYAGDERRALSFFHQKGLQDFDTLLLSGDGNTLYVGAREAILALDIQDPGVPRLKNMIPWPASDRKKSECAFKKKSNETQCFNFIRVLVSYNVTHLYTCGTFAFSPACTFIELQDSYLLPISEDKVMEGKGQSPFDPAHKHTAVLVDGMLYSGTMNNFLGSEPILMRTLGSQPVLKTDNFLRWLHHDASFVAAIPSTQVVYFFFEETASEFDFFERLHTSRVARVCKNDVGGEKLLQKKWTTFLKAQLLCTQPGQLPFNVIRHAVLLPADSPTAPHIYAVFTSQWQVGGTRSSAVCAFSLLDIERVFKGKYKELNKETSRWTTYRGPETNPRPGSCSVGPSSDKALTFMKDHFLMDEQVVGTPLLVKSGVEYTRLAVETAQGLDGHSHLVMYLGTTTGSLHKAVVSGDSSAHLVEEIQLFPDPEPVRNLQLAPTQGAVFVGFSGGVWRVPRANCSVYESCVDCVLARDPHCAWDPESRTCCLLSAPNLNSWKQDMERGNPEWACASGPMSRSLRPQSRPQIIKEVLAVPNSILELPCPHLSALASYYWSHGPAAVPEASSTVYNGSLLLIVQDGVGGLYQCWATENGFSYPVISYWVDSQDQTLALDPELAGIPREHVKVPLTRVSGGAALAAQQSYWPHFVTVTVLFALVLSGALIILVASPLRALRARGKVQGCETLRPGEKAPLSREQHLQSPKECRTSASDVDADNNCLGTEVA

Row | Binder | IC50 (pM), Fab-ZAP cell kill, NCI-H929 [pM] | Max % Cell Kill, Fab-ZAP, NCI-H929 [%]
1 | B1 | 38 | 89
2 | B2 | 38 | 78
3 | B3 | 113 | 58
4 | B4 | 74 | 74
5 | B5 | 66 | 76
6 | B6 | 52 | 83
7 | B7 | 119 | 50

biological target: T1, human SEMA4A expressed on cells …; test: Mirrorball epitope competition on MM.1S cells; competitor: fixed 5E3 mouse IgG1
Source text: The 5E3 epitope competition assay assessed the ability of the un-purified IgGs expressed in a human IgG1 backbone to compete for binding to the mouse 5E3 epitope on human SEMA4A endogenously expressed by MM.1S cells, a human multiple myeloma cell line. The assay utilised a secondary-Alexa Fluor 647 conjugate, 5E3 expressed in a mouse IgG1 (A) backbone (BioLegend®, San Diego, CA, 148402) and a Mirrorball fluorescence cytometer (SPT Labtech, UK). Binding of 5E3 mouse IgG1 to MM.1S cells was measured via an anti-mouse secondary labelled with Alexa Fluor 647 (Invitrogen, A21235) in the presence of a single concentration of each un-purified human IgG1. […] 10 μl undiluted un-purified IgG, contained in Expi293 expression medium (Gibco, UK, A1435101), were added to the assay plate (Greiner Bio-one, UK, 781906), followed by 10 ul of 1.2 nM 5E3 mouse IgG1 and 20 μl MM.1S cell suspension containing 1,500 cells that was spiked with 4 nM anti-mouse Alexa Fluor 647. The assay plate was incubated for 4 hours at room temperature, in the dark prior to reading on a Mirrorball fluorescence cytometer (SPT Labtech, UK) using a 640 nm laser for excitation and measuring emission in the FL-4 channel (650-690 nm). Data was analysed as Count x median mean intensity (x FLU). All dilutions were performed in Hanks' balanced salt solution (Sigma, UK; cat: H8264) containing 0.1% (w/V) BSA (Sigma, UK; cat: A9576). Maximum binding signal was determined by analysing the binding of 5E3 mouse IgG1 to MM.1S cells in the absence of competitor un-purified human IgG1. Background binding signal was determined by analysing the fluorescence generated in the absence of 5E3 mouse IgG1. Data were analysed and graphed using GraphPad Prism software (GraphPad Software, Inc, La Jolla, CA).
Hits from the primary screening were re-formatted into the human Alya IgG1 vector and re-expressed and purified as described in section 4.1. 5E3 epitope competition assay methods are described in section 3.2 and were used to test purified human Alya IgG1s. The purified human Alya IgG1s were diluted to a 4× stock and then serially diluted using 4-fold dilutions to generate a 10 point concentration response curve.

Row | Binder | IC50 [nM]
8 | B1 | 0.3
9 | B2 | 1.1
10 | B3 | 11.3
11 | B4 | 2.1
12 | B5 | 2
13 | B6 | 1.1
14 | B7 | 20.4

biological target: T2, mouse SEMA4A expressed on expi293 cells (UniProt ID Q62178) (mouse, UniProt Q62178 33-760); test: Mirrorball direct binding, dilution series on expi293 cells transiently transfected with mouse SEMA4A, anti-human Alexa Fluor 647
T2 construct: Transient transfection in expi293 cells
T2 sequence: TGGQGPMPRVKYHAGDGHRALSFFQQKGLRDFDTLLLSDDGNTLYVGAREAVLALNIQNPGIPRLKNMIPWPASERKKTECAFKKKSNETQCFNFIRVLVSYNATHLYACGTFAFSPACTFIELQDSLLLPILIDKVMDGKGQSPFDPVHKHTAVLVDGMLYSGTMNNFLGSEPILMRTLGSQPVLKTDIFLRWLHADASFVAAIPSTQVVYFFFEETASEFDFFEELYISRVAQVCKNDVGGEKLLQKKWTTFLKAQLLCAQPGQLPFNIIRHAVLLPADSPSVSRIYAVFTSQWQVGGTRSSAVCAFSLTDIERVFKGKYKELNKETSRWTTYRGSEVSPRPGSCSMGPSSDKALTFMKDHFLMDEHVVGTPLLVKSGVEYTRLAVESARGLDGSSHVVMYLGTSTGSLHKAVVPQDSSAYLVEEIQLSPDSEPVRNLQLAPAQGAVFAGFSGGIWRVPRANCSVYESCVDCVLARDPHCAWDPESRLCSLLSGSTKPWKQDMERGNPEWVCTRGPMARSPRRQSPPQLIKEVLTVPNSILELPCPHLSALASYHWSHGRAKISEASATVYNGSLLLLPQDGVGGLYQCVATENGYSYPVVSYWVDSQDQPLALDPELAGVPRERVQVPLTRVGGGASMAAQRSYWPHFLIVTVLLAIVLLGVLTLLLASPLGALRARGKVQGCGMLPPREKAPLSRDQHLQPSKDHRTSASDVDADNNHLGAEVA
Source text: Hits from the primary screening were re-formatted into the human Alya IgG1 vector and re-expressed and purified as described in section 4.1. In addition, a single clone was identified that contained an Asparagine deamidation motif (Asn Gly) within its VHCDR2. This potential sequence liability was de-risked by synthesising de novo two clonal variant VH genes (Asn Ala and Gln Gly) and cloning these sequences into the human Alya IgG1 expression vector. To determine the specificity profile of each purified human Alya IgG1, a dilution series was tested for binding to human SEMA4A, mouse SEMA4A, cyno SEMA4A, human SEMA4B and mock transfected cells (transient transfections set up in expi 293 cells.) The five assays employed methods described in section 2.3, using the appropriate cells and substituting the un-purified scFv periplasmic preparation with the recombinant human Alya IgG1 dilution series. Data was analysed as Count x median mean intensity (x FLU).

Row | Binder | binding result
15 | B8 | binds
16 | B9 | binds
17 | B10 | binds
18 | B1 | binds
19 | B11 | binds
20 | B12 | binds
21 | B13 | binds
22 | B2 | binds
23 | B3 | binds
24 | B4 | binds
25 | B5 | binds
26 | B6 | binds
27 | B7 | binds
